Data published in patent US20130324409A1 (University of California, published 2013).
One block for each binder: values may come before it.

How the values were obtained:
[1] = biological target: T1, PYL4 6×His-tagged protein
T1 chain: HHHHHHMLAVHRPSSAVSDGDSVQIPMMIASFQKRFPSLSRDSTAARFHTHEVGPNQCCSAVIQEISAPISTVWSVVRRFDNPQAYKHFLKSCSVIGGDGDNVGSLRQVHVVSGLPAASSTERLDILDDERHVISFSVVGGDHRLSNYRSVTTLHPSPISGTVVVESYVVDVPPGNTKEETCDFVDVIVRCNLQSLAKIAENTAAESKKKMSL

[2] = biological target: T2, GST-HAB1 (Arabidopsis, UniProt Q9CAJ0 23-511); assay: cell-based or functional assay
T2 sequence (looked up): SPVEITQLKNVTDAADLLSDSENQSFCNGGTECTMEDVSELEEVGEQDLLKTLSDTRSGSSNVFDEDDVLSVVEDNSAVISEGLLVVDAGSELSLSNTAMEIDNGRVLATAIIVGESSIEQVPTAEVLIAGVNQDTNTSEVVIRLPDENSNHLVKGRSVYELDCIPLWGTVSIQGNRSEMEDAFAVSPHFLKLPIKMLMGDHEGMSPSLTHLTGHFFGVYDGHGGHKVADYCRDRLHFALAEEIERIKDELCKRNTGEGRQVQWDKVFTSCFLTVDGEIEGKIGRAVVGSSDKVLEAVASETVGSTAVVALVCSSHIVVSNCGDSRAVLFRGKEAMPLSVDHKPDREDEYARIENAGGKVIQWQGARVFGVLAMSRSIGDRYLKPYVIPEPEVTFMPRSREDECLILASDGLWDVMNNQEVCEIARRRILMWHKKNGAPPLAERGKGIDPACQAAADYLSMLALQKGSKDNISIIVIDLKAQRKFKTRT

[3] = biological target: T3, ABI2 (yeast two-hybrid construct) (UniProt O04719 1-423); assay: yeast two-hybrid
T3 construct: also called wild type ABI2; cDNA U24491
T3 sequence (looked up): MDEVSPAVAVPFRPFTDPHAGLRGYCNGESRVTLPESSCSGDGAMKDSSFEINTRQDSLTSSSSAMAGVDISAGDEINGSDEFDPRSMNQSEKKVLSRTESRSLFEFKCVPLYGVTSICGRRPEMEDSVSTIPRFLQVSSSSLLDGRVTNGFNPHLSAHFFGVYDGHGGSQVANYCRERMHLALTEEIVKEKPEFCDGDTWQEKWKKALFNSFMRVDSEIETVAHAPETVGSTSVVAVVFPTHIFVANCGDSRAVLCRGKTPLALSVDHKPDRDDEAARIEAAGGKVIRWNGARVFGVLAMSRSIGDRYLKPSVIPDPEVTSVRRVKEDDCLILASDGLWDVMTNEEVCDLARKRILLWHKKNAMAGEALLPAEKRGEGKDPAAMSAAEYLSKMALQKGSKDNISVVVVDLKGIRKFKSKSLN

[4] = biological target: T4, ABI2^G168D encoded by abi2-1 (yeast two-hybrid construct) (UniProt O04719 1-423); assay: yeast two-hybrid
T4 construct: ABA insensitive mutant protein; also called mutant protein encoded by abi2-1
T4 sequence (looked up): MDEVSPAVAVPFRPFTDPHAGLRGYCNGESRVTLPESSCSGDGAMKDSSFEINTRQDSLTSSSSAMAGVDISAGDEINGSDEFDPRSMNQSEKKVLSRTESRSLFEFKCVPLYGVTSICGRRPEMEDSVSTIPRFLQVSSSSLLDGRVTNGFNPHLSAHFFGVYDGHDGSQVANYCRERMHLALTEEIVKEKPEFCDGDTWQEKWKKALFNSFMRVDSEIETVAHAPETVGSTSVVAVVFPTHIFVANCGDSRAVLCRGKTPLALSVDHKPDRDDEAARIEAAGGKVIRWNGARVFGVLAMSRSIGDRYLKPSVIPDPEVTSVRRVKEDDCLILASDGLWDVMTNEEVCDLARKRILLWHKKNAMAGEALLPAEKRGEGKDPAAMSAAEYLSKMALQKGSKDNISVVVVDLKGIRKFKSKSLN

[5] = biological target: T5, ABI1 (yeast two-hybrid construct) (UniProt P49597 1-434); assay: yeast two-hybrid
T5 construct: also called wild type ABI1; cDNA C104649
T5 sequence (looked up): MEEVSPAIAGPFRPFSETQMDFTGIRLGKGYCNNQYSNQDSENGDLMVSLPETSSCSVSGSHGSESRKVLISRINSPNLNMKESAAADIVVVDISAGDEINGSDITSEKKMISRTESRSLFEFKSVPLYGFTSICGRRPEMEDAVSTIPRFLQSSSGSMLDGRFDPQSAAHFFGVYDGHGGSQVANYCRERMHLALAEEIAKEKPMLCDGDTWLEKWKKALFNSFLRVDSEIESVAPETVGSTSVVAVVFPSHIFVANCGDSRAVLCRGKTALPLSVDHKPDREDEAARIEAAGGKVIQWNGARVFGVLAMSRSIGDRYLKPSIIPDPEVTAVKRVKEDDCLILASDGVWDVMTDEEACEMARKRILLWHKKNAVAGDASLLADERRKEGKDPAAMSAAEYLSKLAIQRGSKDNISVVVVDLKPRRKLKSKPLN

[6] = biological target: T6, GST-ABI2 (UniProt O04719 1-423); assay: His-tag pull-down, E. coli lysate holding the PP2C
T6 construct: Used as cleared E. coli lysate in the pull-downs; not shown: glutathione S-transferase (GST)
T6 sequence (looked up): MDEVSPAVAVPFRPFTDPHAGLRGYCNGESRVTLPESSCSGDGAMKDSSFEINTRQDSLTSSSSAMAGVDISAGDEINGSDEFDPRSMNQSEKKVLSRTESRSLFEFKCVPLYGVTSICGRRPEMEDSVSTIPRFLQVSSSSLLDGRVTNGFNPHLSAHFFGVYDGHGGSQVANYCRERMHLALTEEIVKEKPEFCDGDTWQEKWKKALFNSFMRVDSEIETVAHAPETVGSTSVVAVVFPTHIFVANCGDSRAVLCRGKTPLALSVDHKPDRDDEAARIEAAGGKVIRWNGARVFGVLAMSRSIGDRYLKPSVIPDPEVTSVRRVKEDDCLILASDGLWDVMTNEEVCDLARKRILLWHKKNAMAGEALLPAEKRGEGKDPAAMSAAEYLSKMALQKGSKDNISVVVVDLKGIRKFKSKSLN
Description: (§1) To explore the functional implications of the PYR1-PP2C interaction, we examined if an ABA response could be reconstituted in vitro. Recombinant GST-HAB1, GST-ABI1 and GST-ABI2 were expressed in E. coli and tested for ligand-dependent interactions with 6×His-PYR1 in pull-down assays. Purified 6×His-PYR1 and GST-HAB1 (20 and 100 μg respectively, 8 μM PYR1 final concentration), were combined in 100 μl TBS containing 10 μM (+)-ABA or 1% DMSO for negative control. The reaction was incubated for 90 minutes at RT and 5 μl of PrepEase (USB) His-tagged protein purification resin was added. The resin and reaction mixture was incubated 30 min at RT with gentle shaking at 5 min intervals. The resin was washed five times with TBS containing 10 μM (+)-ABA. After the final wash, the bound protein was eluted in 20 μl SDS-PAGE buffer, boiled for 5 minutes and centrifuged. 5 μl of eluate was analyzed on SDS-PAGE. For pull-downs with ABI1 and ABI2, crude lysates were used in a similar method, except purified PP2C was replaced with cleared E. coli lysates. The amount of lysate added was determined by SDS-page analysis to yield ˜100 μg PP2C, such that the same stoichiometry was used as in assays using purified proteins.

[7] = biological target: T7, GST-ABI1 (UniProt P49597 1-434); assay: His-tag pull-down, E. coli lysate holding the PP2C
T7 construct: Used as cleared E. coli lysate in the pull-downs; not shown: glutathione S-transferase (GST)
T7 sequence (looked up): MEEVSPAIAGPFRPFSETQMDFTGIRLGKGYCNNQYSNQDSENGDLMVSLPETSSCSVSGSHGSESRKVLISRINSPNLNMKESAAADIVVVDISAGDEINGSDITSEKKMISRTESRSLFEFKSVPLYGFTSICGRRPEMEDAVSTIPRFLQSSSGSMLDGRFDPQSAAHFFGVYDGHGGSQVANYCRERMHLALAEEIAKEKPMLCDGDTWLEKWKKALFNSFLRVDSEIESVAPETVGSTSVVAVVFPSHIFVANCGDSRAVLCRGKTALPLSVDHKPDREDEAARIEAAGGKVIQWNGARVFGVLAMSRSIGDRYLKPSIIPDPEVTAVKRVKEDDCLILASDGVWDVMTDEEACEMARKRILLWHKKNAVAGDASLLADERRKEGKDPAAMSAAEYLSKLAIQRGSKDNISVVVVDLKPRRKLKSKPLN
Description: as §1

B1: GST-HAB1 (protein)
chain: SPVEITQLKNVTDAADLLSDSENQSFCNGGTECTMEDVSELEEVGEQDLLKTLSDTRSGSSNVFDEDDVLSVVEDNSAVISEGLLVVDAGSELSLSNTAMEIDNGRVLATAIIVGESSIEQVPTAEVLIAGVNQDTNTSEVVIRLPDENSNHLVKGRSVYELDCIPLWGTVSIQGNRSEMEDAFAVSPHFLKLPIKMLMGDHEGMSPSLTHLTGHFFGVYDGHGGHKVADYCRDRLHFALAEEIERIKDELCKRNTGEGRQVQWDKVFTSCFLTVDGEIEGKIGRAVVGSSDKVLEAVASETVGSTAVVALVCSSHIVVSNCGDSRAVLFRGKEAMPLSVDHKPDREDEYARIENAGGKVIQWQGARVFGVLAMSRSIGDRYLKPYVIPEPEVTFMPRSREDECLILASDGLWDVMNNQEVCEIARRRILMWHKKNGAPPLAERGKGIDPACQAAADYLSMLALQKGSKDNISIIVIDLKAQRKFKTRT
HAB1 phosphatase activity (substrate pNPP) [1]: (+)-ABA inhibits HAB1 phosphatase activity in the presence of PYL4

IC50 of (+)-ABA for inhibition of HAB1 phosphatase activity (substrate pNPP) in the presence of PYR1 [2]: 0.18 µM
B2: 6×His-PYR1 (receptor, not shown: small tags and cut ends)
chain: MPSELTPEERSELKNSIAEFHTYQLDPGSCSSLHAQRIHAPPELVWSIVRRFDKPQTYKHFIKSCSVEQNFEMRVGCTRDVIVISGLPANTSTERLDILDDERRVTGFSIIGGEHRLTNYKSVTTVHRFEKENRIWTVVLESYVVDMPEGNSEDDTRMFADTVVKLNLQKLATVAEAMARNSGDGSGSQVT

binding result [3]: binds
binding result [4]: no binding
binding result [5]: binds
B3: BD-PYR1 fusion protein (receptor, not shown: large carriers; small tags and cut ends)
chain: MPSELTPEERSELKNSIAEFHTYQLDPGSCSSLHAQRIHAPPELVWSIVRRFDKPQTYKHFIKSCSVEQNFEMRVGCTRDVIVISGLPANTSTERLDILDDERRVTGFSIIGGEHRLTNYKSVTTVHRFEKENRIWTVVLESYVVDMPEGNSEDDTRMFADTVVKLNLQKLATVAEAMARNSGDGSGSQVT
notes: Pyr1 open reading frame cloned in frame into pBD-GAL4 Cam, expressed in yeast Y190; also called PYR1 Y2H bait construct; PYRABACTIN … 1

binding result [6]: no binding (tested: 10 µM (+)-ABA)
binding result [7]: no binding (tested: 10 µM (+)-ABA)
B4: 6×His-PYR1^P88S (receptor)
chain: MPSELTPEERSELKNSIAEFHTYQLDPGSCSSLHAQRIHAPPELVWSIVRRFDKPQTYKHFIKSCSVEQNFEMRVGCTRDVIVISGLSANTSTERLDILDDERRVTGFSIIGGEHRLTNYKSVTTVHRFEKENRIWTVVLESYVVDMPEGNSEDDTRMFADTVVKLNLQKLATVAEAMARNSGDGSGSQVT
notes: also called pyr1-3 mutant protein; not shown: 6×His tag and vector residues of pET28
